Assay results: patent US20150368338A1 (Janssen / Centocor, published 2015)

T1: IFN-αF (human, UniProt P01568 24-189)
T1 construct: also called IFN-α21; alpha F
T1 chain: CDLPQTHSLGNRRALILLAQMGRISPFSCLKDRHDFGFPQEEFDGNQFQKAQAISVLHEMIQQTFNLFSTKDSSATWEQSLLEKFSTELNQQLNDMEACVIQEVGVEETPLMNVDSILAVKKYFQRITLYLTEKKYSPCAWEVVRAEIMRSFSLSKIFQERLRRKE


Experiments:
Assay in all cases: ProteOn, one antigen concentration
[1] = target: T2, human IFN-ω (human, UniProt P05000 24-195)
T2 construct: also called interferon omega

[2] = target: T3, IFN-αG (human, UniProt P01569 24-189)
T3 construct: also called IFN-α5; alpha G

[3] = target: T4, IFN-αJ1 (human, UniProt P01567 24-189)
T4 construct: also called IFN-α7; alpha J1

[4] = target: T1, IFN-αF
[5] = target: T5, IFN-αWA (human, UniProt P05015 24-189)
T5 construct: also called IFN-α16; alpha WA

[6] = target: T6, IFN-αC (human, UniProt P01566 24-189)
T6 construct: also called IFN-α10; alpha C

[7] = target: T7, IFN-α4a (human, UniProt P05014 24-189)
T7 construct: also called IFN-αM1

Kd [1]	Kd [2]	Kd [3]	Kd [4]	Kd [5]	Kd [6]	Kd [7]	Binder
0.274 nM							IFWM3356 (antibody, V domains shown, VH IFWH624, VL IFWL1026; converted mAb; also called IFWB3091) VH: EVQLVQSGAEVKKPGESLKISCKGSGYSFTSYWIGWVRQMPGKGLEWMGIIDPSDSDTAYSPSFQGQVTISADKSISTAYLQWSSLKASDTAMYYCARHPGLNWAPDFDYWGQGTLVTVSS VL: DIQMTQSPSSLSASVGDRVTITCRASQSISKFLNWYQQKPGKAPKLLIYFASSLQSGVPSRFSGSGSGTDFTLTISSLQPEDFATYYCQQSYDFPITFGQGTKVEIK
0.056 nM	0.118 nM	0.221 nM	0.084 nM	0.155 nM		0.354 nM	IFWM3313 (antibody, V domains shown, VH IFWH591, VL IFWL1013; converted mAb; also called IFWB3048) VH: EVQLVQSGAEVKKPGESLKISCKGSGYSFTSYWIGWVRQMPGKGLEWMGIIDPSDSDTRYSPSFQGQVTISADKSISTAYLQWSSLKASDTAMYYCARHPGLNWAPDFDYWGQGTLVTVSS VL: DIQMTQSPSSLSASVGDRVTITCRASQSINNFLNWYQQKPGKAPKLLIYFASSLQSGVPSRFSGSGSGTDFTLTISSLQPEDFATYYCQQSFNLPITFGQGTKVEIK
0.013 nM	0.013 nM	0.068 nM	0.02 nM	0.038 nM		0.144 nM	IFWM3312 (antibody, V domains shown, VH IFWH591, VL IFWL1010; converted mAb; also called IFWB3047) VH: EVQLVQSGAEVKKPGESLKISCKGSGYSFTSYWIGWVRQMPGKGLEWMGIIDPSDSDTRYSPSFQGQVTISADKSISTAYLQWSSLKASDTAMYYCARHPGLNWAPDFDYWGQGTLVTVSS VL: DIQMTQSPSSLSASVGDRVTITCRASQSIDGALNWYQQKPGKAPKLLIYFASSLQSGVPSRFSGSGSGTDFTLTISSLQPEDFATYYCQQSFDFPLTFGQGTKVEIK
0.055 nM	0.12 nM	0.275 nM	0.14 nM	0.139 nM	0.109 nM	0.383 nM	IFWM3309 (antibody, V domains shown, VH IFWH591, VL IFWL1006; converted mAb; also called IFWB3044) VH: EVQLVQSGAEVKKPGESLKISCKGSGYSFTSYWIGWVRQMPGKGLEWMGIIDPSDSDTRYSPSFQGQVTISADKSISTAYLQWSSLKASDTAMYYCARHPGLNWAPDFDYWGQGTLVTVSS VL: DIQMTQSPSSLSASVGDRVTITCRASQSIGGFLNWYQQKPGKAPKLLIYFASSLQSGVPSRFSGSGSGTDFTLTISSLQPEDFATYYCQQSYSLPITFGQGTKVEIK
0.073 nM	0.094 nM	0.144 nM	0.048 nM	0.121 nM		0.337 nM	IFWM3323 (antibody, V domains shown, VH IFWH591, VL IFWL1053; converted mAb; also called IFWB3058) VH: EVQLVQSGAEVKKPGESLKISCKGSGYSFTSYWIGWVRQMPGKGLEWMGIIDPSDSDTRYSPSFQGQVTISADKSISTAYLQWSSLKASDTAMYYCARHPGLNWAPDFDYWGQGTLVTVSS VL: DIQMTQSPSSLSASVGDRVTITCRASQSITNHLNWYQQKPGKAPKLLIYFASSLQSGVPSRFSGSGSGTDFTLTISSLQPEDFATYYCQQAHNFPLTFGQGTKVEIK

Continued, binder first:

Binder	Kd [1]	Kd [2]	Kd [3]	Kd [4]	Kd [5]	Kd [6]	Kd [7]
IFWM371 (antibody, V domains shown, VH IFWH591, VL PH9L4; parental mAb, IgG1/kappa; also called IFWB351) VH: EVQLVQSGAEVKKPGESLKISCKGSGYSFTSYWIGWVRQMPGKGLEWMGIIDPSDSDTRYSPSFQGQVTISADKSISTAYLQWSSLKASDTAMYYCARHPGLNWAPDFDYWGQGTLVTVSS VL: not shown	1.06 nM	0.263 nM	4.23 nM	0.775 nM	1.39 nM	0.865 nM	
IFWM3291 (antibody, V domains shown, VH IFWH591, VL IFWL999; converted mAb; also called IFWB3026) VH: EVQLVQSGAEVKKPGESLKISCKGSGYSFTSYWIGWVRQMPGKGLEWMGIIDPSDSDTRYSPSFQGQVTISADKSISTAYLQWSSLKASDTAMYYCARHPGLNWAPDFDYWGQGTLVTVSS VL: DIQMTQSPSSLSASVGDRVTITCRASQSIDEFLNWYQQKPGKAPKLLIYFASSLQSGVPSRFSGSGSGTDFTLTISSLQPEDFATYYCQQAHSFPLTFGQGTKVEIK	0.028 nM	0.067 nM	0.122 nM	0.051 nM	0.125 nM	0.045 nM	0.317 nM
IFWM3304 (antibody, V domains shown, VH IFWH591, VL IFWL997; converted mAb; also called IFWB3039) VH: EVQLVQSGAEVKKPGESLKISCKGSGYSFTSYWIGWVRQMPGKGLEWMGIIDPSDSDTRYSPSFQGQVTISADKSISTAYLQWSSLKASDTAMYYCARHPGLNWAPDFDYWGQGTLVTVSS VL: DIQMTQSPSSLSASVGDRVTITCRASQSIGSALNWYQQKPGKAPKLLIYFASSLQSGVPSRFSGSGSGTDFTLTISSLQPEDFATYYCQQSYDFPLTFGQGTKVEIK	0.032 nM	0.037 nM	0.053 nM	0.032 nM	0.092 nM	0.026 nM	0.12 nM
IFWM3301 (antibody, V domains shown, VH IFWH591, VL IFWL983; converted mAb; also called IFWB3036) VH: EVQLVQSGAEVKKPGESLKISCKGSGYSFTSYWIGWVRQMPGKGLEWMGIIDPSDSDTRYSPSFQGQVTISADKSISTAYLQWSSLKASDTAMYYCARHPGLNWAPDFDYWGQGTLVTVSS VL: DIQMTQSPSSLSASVGDRVTITCRASQSIDGSLNWYQQKPGKAPKLLIYFASSLQSGVPSRFSGSGSGTDFTLTISSLQPEDFATYYCQQSYDFPLTFGQGTKVEIK	0.018 nM	0.029 nM	0.074 nM	0.029 nM	0.079 nM	0.024 nM	0.146 nM
IFWM3308 (antibody, V domains shown, VH IFWH591, VL IFWL1004; converted mAb; also called IFWB3043) VH: EVQLVQSGAEVKKPGESLKISCKGSGYSFTSYWIGWVRQMPGKGLEWMGIIDPSDSDTRYSPSFQGQVTISADKSISTAYLQWSSLKASDTAMYYCARHPGLNWAPDFDYWGQGTLVTVSS VL: DIQMTQSPSSLSASVGDRVTITCRASQSIAEFLNWYQQKPGKAPKLLIYFASSLQSGVPSRFSGSGSGTDFTLTISSLQPEDFATYYCQQSIDFPLTFGQGTKVEIK	0.038 nM	0.045 nM	0.203 nM	0.053 nM	0.099 nM	0.052 nM	0.246 nM
IFWM3307 (antibody, V domains shown, VH IFWH591, VL IFWL1001; converted mAb; also called IFWB3042) VH: EVQLVQSGAEVKKPGESLKISCKGSGYSFTSYWIGWVRQMPGKGLEWMGIIDPSDSDTRYSPSFQGQVTISADKSISTAYLQWSSLKASDTAMYYCARHPGLNWAPDFDYWGQGTLVTVSS VL: DIQMTQSPSSLSASVGDRVTITCRASQSIGDFLNWYQQKPGKAPKLLIYFASSLQSGVPSRFSGSGSGTDFTLTISSLQPEDFATYYCQQALDFPLTFGQGTKVEIK	0.046 nM	0.058 nM	0.305 nM		0.162 nM	0.062 nM	0.426 nM
IFWM3303 (antibody, V domains shown, VH IFWH591, VL IFWL992; converted mAb; also called IFWB3038) VH: EVQLVQSGAEVKKPGESLKISCKGSGYSFTSYWIGWVRQMPGKGLEWMGIIDPSDSDTRYSPSFQGQVTISADKSISTAYLQWSSLKASDTAMYYCARHPGLNWAPDFDYWGQGTLVTVSS VL: DIQMTQSPSSLSASVGDRVTITCRASQSIGSFLNWYQQKPGKAPKLLIYFASSLQSGVPSRFSGSGSGTDFTLTISSLQPEDFATYYCQQSYSIPITFGQGTKVEIK	0.013 nM	0.082 nM	0.157 nM	0.134 nM	0.168 nM	0.079 nM	0.299 nM
IFWM3302 (antibody, V domains shown, VH IFWH591, VL IFWL991; converted mAb; also called IFWB3037) VH: EVQLVQSGAEVKKPGESLKISCKGSGYSFTSYWIGWVRQMPGKGLEWMGIIDPSDSDTRYSPSFQGQVTISADKSISTAYLQWSSLKASDTAMYYCARHPGLNWAPDFDYWGQGTLVTVSS VL: DIQMTQSPSSLSASVGDRVTITCRASQSINRFLNWYQQKPGKAPKLLIYAASSLQSGVPSRFSGSGSGTDFTLTISSLQPEDFATYYCQQAIDLPFTFGQGTKVEIK	0.052 nM	0.098 nM	0.231 nM	0.072 nM	0.168 nM	0.083 nM	0.268 nM
IFWM3292 (antibody, V domains shown, VH IFWH624, VL IFWL999; converted mAb; also called IFWB3027) VH: EVQLVQSGAEVKKPGESLKISCKGSGYSFTSYWIGWVRQMPGKGLEWMGIIDPSDSDTAYSPSFQGQVTISADKSISTAYLQWSSLKASDTAMYYCARHPGLNWAPDFDYWGQGTLVTVSS VL: DIQMTQSPSSLSASVGDRVTITCRASQSIDEFLNWYQQKPGKAPKLLIYFASSLQSGVPSRFSGSGSGTDFTLTISSLQPEDFATYYCQQAHSFPLTFGQGTKVEIK	0.018 nM	0.049 nM	0.295 nM	0.098 nM	0.072 nM	0.123 nM	0.613 nM
IFWM3306 (antibody, V domains shown, VH IFWH591, VL IFWL1000; converted mAb; also called IFWB3041) VH: EVQLVQSGAEVKKPGESLKISCKGSGYSFTSYWIGWVRQMPGKGLEWMGIIDPSDSDTRYSPSFQGQVTISADKSISTAYLQWSSLKASDTAMYYCARHPGLNWAPDFDYWGQGTLVTVSS VL: DIQMTQSPSSLSASVGDRVTITCRASQSITNFLNWYQQKPGKAPKLLIYFASSLQSGVPSRFSGSGSGTDFTLTISSLQPEDFATYYCQQSLDFPLTFGQGTKVEIK	0.02 nM	0.029 nM	0.086 nM	0.025 nM	0.07 nM	0.027 nM	0.147 nM
IFWM3305 (antibody, V domains shown, VH IFWH591, VL IFWL998; converted mAb; also called IFWB3040) VH: EVQLVQSGAEVKKPGESLKISCKGSGYSFTSYWIGWVRQMPGKGLEWMGIIDPSDSDTRYSPSFQGQVTISADKSISTAYLQWSSLKASDTAMYYCARHPGLNWAPDFDYWGQGTLVTVSS VL: DIQMTQSPSSLSASVGDRVTITCRASQSISKFLNWYQQKPGKAPKLLIYFASSLQSGVPSRFSGSGSGTDFTLTISSLQPEDFATYYCQQSNTLPFTFGQGTKVEIK	0.031 nM	0.127 nM	0.154 nM	0.113 nM	0.201 nM	0.114 nM	0.223 nM
